Test results taken from the supplement of paper PMC9112550, “Optimization of the antimicrobial peptide Bac7 by deep mutational scanning” (BMC Biology, 2022).

Test system: Escherichia coli TOP10
Assay: shrunken log2 fold change of peptide-encoding DNA abundance (4.5 h post-induction vs induction); higher = less antimicrobial activity (less host growth inhibition)
Settings: time post-induction: 4.5 h; library: site-saturation at positions 5, 18, 19, 20
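Also: peptides expressed intracellularly from a pBAD plasmid library in pooled LB shake-flask culture, induced with 0.3% L-arabinose, DNA abundance read by NGS, three biological replicates, DESeq2 with apeglm shrinkage.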

Sequence | shrunken log2 fold change
RRIRTRPPRLPRPRPRPHAVPRP | 0.0205
RRIRERPPRLPRPRPRPCGTPRP | -0.00758
RRIRWRPPRLPRPRPRPRQSPRP | 0.236
RRIRPRPPRLPRPRPRPPNCPRP | 0.215
RRIRPRPPRLPRPRPRPEPMPRP | 0.542
RRIRTRPPRLPRPRPRPCCRPRP | 0.0338
RRIRIRPPRLPRPRPRPDKAPRP | -0.00957
RRIRLRPPRLPRPRPRPEFAPRP | 0.342
RRIRPRPPRLPRPRPRPELAPRP | 0.643
RRIRFRPPRLPRPRPRPHNKPRP | 0.0525
RRIRVRPPRLPRPRPRPLKMPRP | -0.561
RRIRPRPPRLPRPRPRPGFEPRP | 0.225
RRIRCRPPRLPRPRPRPWDCPRP | -0.469
RRIRERPPRLPRPRPRPNHAPRP | -0.239
RRIRMRPPRLPRPRPRPRESPRP | 0.09
RRIRSRPPRLPRPRPRPLGGPRP | 0.455
RRIRRRPPRLPRPRPRPQAQPRP | 0.0393
RRIRARPPRLPRPRPRPFVSPRP | -0.00645
RRIRSRPPRLPRPRPRPAYTPRP | 0.0457
RRIRQRPPRLPRPRPRPMMWPRP | 0.0311
RRIRGRPPRLPRPRPRPGSQPRP | 0.722
RRIRKRPPRLPRPRPRPAPRPRP | 1.26

Sequence | shrunken log2 fold change
RRIRCRPPRLPRPRPRPIGQPRP | 0.0567
RRIRARPPRLPRPRPRPRKWPRP | 1.28
RRIRCRPPRLPRPRPRPWTIPRP | -0.0777
RRIRKRPPRLPRPRPRPSGDPRP | 0.485
RRIRGRPPRLPRPRPRPFFFPRP | 0.696
RRIRWRPPRLPRPRPRPKQYPRP | -0.266
RRIRVRPPRLPRPRPRPLWTPRP | 0.0846
RRIRIRPPRLPRPRPRPFKTPRP | 0.0132
RRIRFRPPRLPRPRPRPTVGPRP | -0.142
RRIRSRPPRLPRPRPRPAPEPRP | 0.479
RRIRPRPPRLPRPRPRPVKDPRP | -0.0309
RRIRFRPPRLPRPRPRPMVKPRP | -0.219
RRIRTRPPRLPRPRPRPWYDPRP | 0.0754
RRIRIRPPRLPRPRPRPCGLPRP | -0.0428
RRIRRRPPRLPRPRPRPFVAPRP | 0.354
RRIRMRPPRLPRPRPRPPHNPRP | 0.767
RRIRARPPRLPRPRPRPHVHPRP | -0.192
RRIRKRPPRLPRPRPRPNYDPRP | -0.359
RRIRTRPPRLPRPRPRPAEWPRP | 0.0396
RRIRARPPRLPRPRPRPNSKPRP | -0.155
RRIRIRPPRLPRPRPRPAHAPRP | -0.0674
RRIRVRPPRLPRPRPRPMELPRP | -0.135

Sequence | shrunken log2 fold change
RRIRQRPPRLPRPRPRPVACPRP | -0.0393
RRIRFRPPRLPRPRPRPKTRPRP | 0.277
RRIRRRPPRLPRPRPRPDDYPRP | -0.377
RRIRSRPPRLPRPRPRPAKEPRP | 0.0106
RRIRNRPPRLPRPRPRPYVWPRP | -0.135
RRIRARPPRLPRPRPRPNEQPRP | 0.234
RRIRQRPPRLPRPRPRPDMYPRP | 0.0381
RRIRHRPPRLPRPRPRPHVPPRP | 0.084
RRIRWRPPRLPRPRPRPHFCPRP | -0.0299
RRIRTRPPRLPRPRPRPGCLPRP | 0.172
RRIRQRPPRLPRPRPRPFTGPRP | -0.0255
RRIRWRPPRLPRPRPRPDNKPRP | -0.571
RRIRVRPPRLPRPRPRPNHEPRP | -0.547
RRIRPRPPRLPRPRPRPWMMPRP | -0.03
RRIRNRPPRLPRPRPRPKAPPRP | -0.0518
RRIRYRPPRLPRPRPRPAIRPRP | -0.0189
RRIRLRPPRLPRPRPRPSITPRP | -0.436
RRIRDRPPRLPRPRPRPDDDPRP | -0.00186
RRIRNRPPRLPRPRPRPIQLPRP | -0.203
RRIRMRPPRLPRPRPRPADYPRP | 0.0259
RRIRHRPPRLPRPRPRPHWNPRP | -0.407
RRIRERPPRLPRPRPRPKIIPRP | 0.357

Sequence | shrunken log2 fold change
RRIRIRPPRLPRPRPRPMIQPRP | 0.102
RRIRHRPPRLPRPRPRPFPFPRP | -0.758
RRIRRRPPRLPRPRPRPRVAPRP | 0.875
RRIRGRPPRLPRPRPRPAIEPRP | 0.942
RRIRQRPPRLPRPRPRPPIEPRP | -0.09
RRIRYRPPRLPRPRPRPAGLPRP | 0.125
RRIRARPPRLPRPRPRPREMPRP | 0.563
RRIRIRPPRLPRPRPRPVRLPRP | 0.499
RRIRYRPPRLPRPRPRPVEPPRP | -0.384
RRIRNRPPRLPRPRPRPLSIPRP | -0.423
RRIRNRPPRLPRPRPRPSSWPRP | 0.0908
RRIRDRPPRLPRPRPRPEMDPRP | 0.0766
RRIRQRPPRLPRPRPRPDQYPRP | -0.0114
RRIRQRPPRLPRPRPRPATEPRP | -0.037
RRIRPRPPRLPRPRPRPNQVPRP | 0.0456
RRIRIRPPRLPRPRPRPRPLPRP | 0.181
RRIRARPPRLPRPRPRPACWPRP | 0.849
RRIRTRPPRLPRPRPRPMETPRP | 0.0774
RRIRQRPPRLPRPRPRPKMVPRP | -0.0201
RRIRLRPPRLPRPRPRPEGIPRP | -0.229
RRIRTRPPRLPRPRPRPMTIPRP | -0.137
RRIRRRPPRLPRPRPRPHVIPRP | -0.0937

Sequence | shrunken log2 fold change
RRIRSRPPRLPRPRPRPWSYPRP | 0.0308
RRIRQRPPRLPRPRPRPRPDPRP | 0.191
RRIRWRPPRLPRPRPRPFWPPRP | 0.161
RRIRLRPPRLPRPRPRPMFYPRP | -0.361
RRIRYRPPRLPRPRPRPWTQPRP | -0.343
RRIRIRPPRLPRPRPRPRYFPRP | -0.769
RRIRIRPPRLPRPRPRPVHDPRP | -0.0869
RRIRARPPRLPRPRPRPWPFPRP | -0.0236
RRIRERPPRLPRPRPRPSWAPRP | -0.24
RRIRCRPPRLPRPRPRPDMNPRP | -0.312
RRIRHRPPRLPRPRPRPAHMPRP | -0.0835
RRIRYRPPRLPRPRPRPASLPRP | -0.662
RRIRQRPPRLPRPRPRPRAAPRP | 0.506
RRIRARPPRLPRPRPRPIVYPRP | -0.248
RRIRFRPPRLPRPRPRPLGWPRP | 0.494
RRIRWRPPRLPRPRPRPTFSPRP | -0.0911
RRIRIRPPRLPRPRPRPMDIPRP | -0.911
RRIRTRPPRLPRPRPRPRKFPRP | 0.0711
RRIRCRPPRLPRPRPRPKCFPRP | -0.372
RRIRRRPPRLPRPRPRPKHQPRP | 1.57
RRIRIRPPRLPRPRPRPYQNPRP | -1.1
